In the nanobody polyreactivity screen of Harvey et al. (2022):

assay: yeast display, Sf9 membrane polyspecificity reagent, FACS + sequencing; frameworks hold sequencing errors
How it was run: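 Nanobodies from a synthetic yeast display library (Saccharomyces cerevisiae BJ5465), induced 36–48 hours with galactose, were stained 1 hour at 4 °C with 10% biotinylated, detergent-solubilized Sf9 membrane reagent, enriched on streptavidin microbeads, then FACS-sorted. Anti-HA (expression) and streptavidin (reagent binding) fluorescence set low and high (top ~1%) gates. Polyreactivity labels come from the gate of origin. Genes were colony-PCR amplified, MiSeq 2 × 250 sequenced and filtered by CDR length.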

Sequence | polyreactivity (PSR sort gate)
QVQLVESGGGLVQAGGSLRLSCAASGSIFRYYTMGWYRQEPGKERELVAAISCNGGRTYYADSVKGRFTISCDNAKNTVYLQMNSLKPEDTAVYYCNAVYILTETWYDYWGQGTQVTVSS | high polyreactivity
QVQLVESGGGLVQAGGSLRLSCAASGSIFRYYVMGWYRQAPGKERELVAAINGGGGSTYYADSVKGRFTISRDNAKNTVYLQMNSLKPEDTAVYYCNAVGGTRGKYPYFKYGYWGQGTQVTVSS | high polyreactivity
QVQLVESGGGLVQAGGSLRLSCAASGSIFSANAMGWYRQAPGKERELVAAIRRTGGSTYYADSVKGRFTISRDNAKNTVYLQMNSLKPEDTAVYFCTKRHSILYEGGYDYWGQGTQVTVSS | low polyreactivity
QVQLVESGGGLVQAGGSLRLSCAASGSIFSANVMGWYRQAPGKERELVAAITRGGGTYYADSVKGRFTISRDNAKNTVYLQMNSLKPEDTAVYYCNDDYTLSVYGTTYWYNYWGQGTQVTVSS | high polyreactivity
QVQLVESGGGLVQAGGSLRLSCAASGSIFSANVMVWYRQAPGKEWELVAASRRGGTTYYADSVKGRFTISRDNAKNTVYLQMNSLKPEDTAVYYCATDGNFGSYLRFAVAYDYWGQGTQVTVSS | low polyreactivity
QVQLVESGGGLVQAGGSLRLSCAASGSIFSDYTMGWYRQAPGKERELVAAISGIGGSTYYADSVKGRFTISRDNAKNTVYLQMNSLTPEDTAVYYCAPDDYYYPYFSHDYWGQGTQVTVSS | low polyreactivity
QVQLVESGGGLVQAGGSLRLSCAASGSIFSFYAMGWYRQAPGKERELVAAIDVSGGSTYYADSVKGRFTISRDNAKNTVYLQMNSLKPEDTAVYYCAKDVRDQYDYWGQGTQVTVSS | low polyreactivity
QVQLVESGGGLVQAGGSLRLSCAASGSIFSFYAMGWYRQAPGKERELVAAITSDGSTDYADSVKGRFTISRDNAKNTVYLQMNSLKPEDTAVYYCAADYIVRVVSRYRYGYEYWGQGTQVTVSS | low polyreactivity
QVQLVESGGGLVQAGGSLRLSCAASGSIFSFYAMGWYRQAPGKERELVATISSGDNTNYADSVKGRFTISRDNAKNTVYLQMISLKPEDTAVYYCAADAWGVDREYDYWGQGTQVTVSS | low polyreactivity
QVQLVESGGGLVQAGGSLRLSCAASGSIFSFYTMGWYRQAPGKERELVARIRSSGGDTYYADSVKGRFTISRDNAKNTVYLQMNSLKPEDTAVYYCARDGYHRDYDYWGQGTQVTVSS | low polyreactivity
QVQLVESGGGLVQAGGSLRLSCAASGSIFSGNAMGRYRQAPGKERELVAAISRSGGSTYYADSVKGRFTISRDNAKNTVYLQMNSLKPEDTAVYYCAAYRTHGPPRAIRFDYWGQGTQVTVSS | high polyreactivity
QVQLVESGGGLVQAGGSLRLSCAASGSIFSGNAMGWYRQAPGKERELVAAISRSGGSTYYADSVKGRFTISRDNAKNTVYLQMNSLKPEDTAVYYCAAYRTHGPPRAIRFDYWGQGTQVTVSS | high polyreactivity
QVQLVESGGGLVQAGGSLRLSCAASGSIFSGNAMGWYRQAPGKERELVAAISRSGGSTYYADSVMGRFTISRDNAKNTVYLQMNSLKPEDTAVYYCNAGRYRAGGWGVGEGYWGQGTQVTVSS | high polyreactivity
QVQLVESGGGLVQAGGSLRLSCAASGSIFSGNAMGWYRQAPGKERELVAFISWNAVGTYYSDSVKGRFTISRDNAKNTVYLQLNSLKPEDTAVYYCSAVRYTGFYYWGQGTQVTVSS | high polyreactivity
QVQLVESGGGLVQAGGSLRLSCAASGSIFSGNAMGWYRQAPGTERELVATISWSGGSTNYADSVKGRFTISRDNAKNTVYIQMNSLKPEETSVYYCNAYVAYWGWVYRVDYWRQGTQVTVSS | low polyreactivity
QVQLVESGGGLVQAGGSLRLSCAASGSIFSGYAMGWYRQAPGKERELVAAITWRGGSTYYADSVKGRFTISRDNAKNTVYLQMNSLKPEDTAVYYCARVWAWSRYDYWGQGTEVTVSS | high polyreactivity
QVQLVESGGGLVQAGGSLRLSCAASGSIFSGYTMGWYRQAPGKERELVATISSSGGRTRYADSVKGRFTISRDNAKNTVYLQMNSLKPEDTAVYYCAAAYYVKYNSEYEYWGQGTQVTVSS | high polyreactivity
QVQLVESGGGLVQAGGSLRLSCAASGSIFSGYTMGWYRQAPGQERELVAAISYRGGRTYYADSVKGRFTISRDNAKNTVYLQMNSLKPEDTAVYYCNAAPYITRRHDYWGQGTQVTVSS | high polyreactivity
QVQLVESGGGLVQAGGSLRLSCAASGSIFSIYAMGWYRQAPGKERELVAAIDSGTSTTYADSVKGRFRISRDNAKKTVYLQMKSLKPEDTAVYYCAAALYSDVAAVATFGYYWGQGTQVTVSS | low polyreactivity
QVQLVESGGGLVQAGGSLRLSCAASGSIFSIYAMGWYRQAPGKERELVAAISWSGGSTYYADSVKGRFTISRDNAKNTVYLQMTSQKPEDTAVYYCLRQDYHYHPYDYWGQGTQVTVSS | low polyreactivity

Sequence | polyreactivity (PSR sort gate)
QVQLVESGGGLVQAGGSLRLSCAASGSIFSIYAMGWYRQAPGKERELVAAITWGGGSTYYADSVKGRFTISRDNAKNTVNLQMNSLKPEDTAVYYCAADSLTWFGTYYYWGQGTQVTVSS | high polyreactivity
QVQLVESGGGLVQAGGSLRLSCAASGSIFSIYAMGWYRQAPGKERELVATIRRDGSTYADSVKGRFTISRDNAKNTVYLQMNSLKPEDTAVYYCNARSYHQPRDYYWGQGTQVNVSS | low polyreactivity
QVQLVESGGGLVQAGGSLRLSCAASGSIFSIYAMGWYRQAPGKERELVATIRVSGDRTYYADSVKGRFTISRDNAKNTVYLQMNSLKPEDTAVYYCAADFRGFYSWNFYYWGQGTQVTVSS | high polyreactivity
QVQLVESGGGLVQAGGSLRLSCAASGSIFSKYAMGWYRQAPGKERELVAAISGSGGDTYYADSVKGRFTISRDNAKNTVYLQMNSLKPEDTAVYFCAAEDQQNGYDYWGQGTQVTVSS | low polyreactivity
QVQLVESGGGLVQAGGSLRLSCAASGSIFSKYAMGWYRQAPGKEWEVVAAIRSIGGSTYYADSVMGRFTISRDNAKNTVYLQMNSRNPDDTAVYYCAARFWPAYSGWYENWGQGTQVTVSS | low polyreactivity
QVQLVESGGGLVQAGGSLRLSCAASGSIFSLYAMGWYRQAPGKASELVASITSSGGRTYYADSVKGRFTITRDTAKNTVYLQMNSLKPEDTAVYYCNNQPSWVGQRVHRFDYWGQGTQVTVSS | low polyreactivity
QVQLVESGGGLVQAGGSLRLSCAASGSIFSLYAMGWYRQAPGKERELVAAISSSGTSTYYADSVKGRFTISRDNAKNTVYLQMNSLKPEDTAVYYCNAYRRRATYNGDYWGQGTQVTVSS | high polyreactivity
QVQLVESGGGLVQAGGSLRLSCAASGSIFSLYAMGWYRQAPGKERELVADIRTSTGRTYYADSVKGRFTISRDNAKNTVYLQMNSLKPEDTAVYYCNADEYKSAVSVGYEYWGQGTQVTVSS | high polyreactivity
QVQLVESGGGLVQAGGSLRLSCAASGSIFSNNAMGLYRQAPGKVSELVASITFSGGNTYYADSVKGRFTISRDNAKNTVYLQMNSLKPEDTAVYYCNADRYPVGTAREYDSWGQGTQVTVSS | low polyreactivity
QVQLVESGGGLVQAGGSLRLSCAASGSIFSPNAMGWYRQAPGKERELVAGITRSGGRTYYADSVKGRFTISRDNAMNTVYLQMNSLKPEDTAVYYCAARAFSYGLKYDYWGQGTQVTVSS | high polyreactivity
QVQLVESGGGLVQAGGSLRLSCAASGSIFSPNVMGWYRQAPGKERELVAAINGSGSRTYYADSVKGRFTISRDNAKNTVYLQMNSLKPEDTAVYYCAAGSLGRYYFKLDYWGQGTQVTVSS | high polyreactivity
QVQLVESGGGLVQAGGSLRLSCAASGSIFSPYAMGWYRQAPGKERELDASISSGTSTNYADSVKGRFTISRDNAKNTVYLQMNSLKPEDTAVYYCNAGADSTVRNYVTSFSQYDYWGQGTQVTVSS | low polyreactivity
QVQLVESGGGLVQAGGSLRLSCAASGSIFSRNAKGWYRQAPGKERELVAAITSGGSTNYADSVKGRFTISRDNAKNTVYLQMNSLKPEDTAVYYCARGWISGFTSRYSIRVLFDYWGQGTQVTVSS | high polyreactivity
QVQLVESGGGLVQAGGSLRLSCAASGSIFSRYALGWYRQAPGKERELVAAISTIGGSTYYADSVKGRFTISRDNSKNTVYLQMNSLKPEDTAVYYCNARQSAALSPRYGYWGQGTQVTVSS | high polyreactivity
QVQLVESGGGLVQAGGSLRLSCAASGSIFSRYAMGWYRPAPGKERELVAAISRSTGSTYYADSVKGRFTISRDNAKNTVYLQMNSLKPEDTAVYYCAAKWIRWGYVSSNSRFGYWGQGTQVTVSS | high polyreactivity
QVQLVESGGGLVQAGGSLRLSCAASGSIFSRYAMGWYRQAPGKERELVAAINGRGSRTYYADSVKGRFTISRDNEMNTVYLQMNSLKPEDTAVYYCAAGRSRLYGPRYFIYKYNYWGQGTQVTVSS | high polyreactivity
QVQLVESGGGLVQAGGSLRLSCAASGSIFSRYAMGWYRQAPGKERELVAAISGRGGGTYYADSVKGRFTISRDNAKNTVYLQKNSMKPEDTAVYYCAAQLGRPAYSRVSWRAYYYWGQGTQVTVSS | low polyreactivity
QVQLVESGGGLVQAGGSLRLSCAASGSIFSRYAMGWYRQAPGKERELVAAITWRGGSTYYADSVKGRFTISRDNAKNTVYLQMNSLKPEDTAVYYCAKDRWTYAFRVGYGYWGQGTQVTVSS | high polyreactivity
QVQLVESGGGLVQAGGSLRLSCAASGSIFSRYTMGWSRQAPGKERELVASISRRGGRTYYADSVKGRFTISRDNAKNTVYLQMNSLKPEDTAVYYCNTRTPAEYTPYGYDYWGQGTQVTVSS | high polyreactivity
QVQLVESGGGLVQAGGSLRLSCAASGSIFSRYTMGWYRQEPGKERELVAAITSSGGRTYYADSVKGRFTISRDNAKNTVYLQMNSLKPEDTAVYYCAARIPKQQGYGYWGQGTQVTVSS | high polyreactivity
